Test results reported in PMC3498625.

Biological target: Wza from E. coli K30, purified DDM-solubilised octameric complex (E. coli K30)
Assay: cryo-EM structure

With “Wza from E. coli K30, purified DDM-solubilised octameric complex (natural protein)” the stoichiometry N was 8.
